Laboratory results published in paper PMC4169312 (The FEBS journal, 2014).

B1: sMAT (methionine adenosyltransferase from Sulfolobus solfataricus) (Saccharolobus solfataricus P2) (protein)
chain: MRNINVQLNPLSDIEKLQVELVERKGLGHPDYIADAVAEEASRKLSLYYLKKYGVILHHNLDKTLVVGGQATPRFKGGDIIQPIYIIVAGRATTEVKTESGIDQIPVGTIIIESVKEWIRNNFRYLDAERHVIVDYKIGKGSSDLVGIFEASKRVPLSNDTSFGVGFAPLTKLEKLVYETERHLNSKQFKAKLPEVGEDIKVMGLRRGNEVDLTIAMATISELIEDVNHYINVKEQVRNQILDLASKIAPGYNVRVYVNTGDKIDKNILYLTVTGTSAEHGDDGMTGRGNRGVGLITPMRPMSLEATAGKNPVNHVGKLYNVLANLIANKIAQEVKDVKFSQVQVLGQIGRPIDDPLIANVDVITYDGKLTDETKNEISGIVDEMLSSFNKLTELILEGKATLF

Assays:
Experiment in all cases: RP-HPLC product quantification, Michaelis-Menten fit
[1] = target: sMAT (methionine adenosyltransferase from Sulfolobus solfataricus) (Saccharolobus solfataricus, UniProt Q980S9); assay type: biochemical; conditions: 65 °C, pH 8.0, 2.5 mM ATP, 5 mM MgCl2, 40 mM KCl
[2] = substrate: CSCC[C@H](N)C(=O)O; assay type: biochemical, Saccharolobus solfataricus; conditions: 65 °C, pH 8.0, 2.5 mM ATP, 5 mM MgCl2, 40 mM KCl
[3] = substrate: Nc1ncnc2c1ncn2[C@@H]1O[C@H](COP(=O)(O)OP(=O)(O)OP(=O)(O)O)[C@@H](O)[C@H]1O; assay type: biochemical, Saccharolobus solfataricus; conditions: 65 °C, pH 8.0, 2.5 mM L-methionine, 5 mM MgCl2, 40 mM KCl

Molecule	Km [1]	Km [2]	kcat [2]	kcat/Km [2]	Km [3]	kcat [3]	kcat/Km [3]
CCSCC[C@H](N)C(=O)O [L-ethionine, (2S)-2-amino-4-(ethylsulfanyl)butanoic acid]	7 ± 1.6 µM	–	–	–	–	–	–
B1	–	2.8 ± 0.7 µM	0.0487 ± 0.00117 s⁻¹	17400 ± 1670 M⁻¹ s⁻¹	14.5 ± 2.5 µM	0.0468 ± 0.00133 s⁻¹	3230 ± 533 M⁻¹ s⁻¹
